# Measured values: US20250026860A1 (NATIONAL UNIVERSITY CORPORATION OKAYAMA UNIVERSITY, published 2025)
# B1: anti-4-HNE monoclonal antibody (#13-1-1) (antibody, V domains shown)
# VH: EVKLLASGGGLVQPGGSMRLSCAASGFTFTDFYMYWIRQPAGKAPEWLGFIRNKANGYTTEYNPSVKGRFTISRDNTQNMLYLQMNTLRAEDTATYYCALGYYGYNYNWFAYWGQGTLVTVSS
# VL: ETVMTQSPTSMSTSIGERVTLNCRASQSVGINVDWYQQTPGQSPKMLIYGASNRHTGVPDRFTGSGFGRDFTLTISNMEAEDLGVYYCLQYASIPYTFGAGTKLELKR
# notes: Rat hybridoma monoclonal antibody; also called anti-4-HNE antibody (#13-1-1); monoclonal antibody produced from Rat hybridoma #13-1-1
# How the values were obtained:
# Test in all cases: ELISA, albumin preparation immobilized on 96-well microplate
# [1] = molecular target: T1, rabbit serum albumin, unmodified (rabbit, UniProt P49065 25-608)
# T1 construct: also called Rabbit-SA
# T1 sequence (P49065 25-608 limits assumed): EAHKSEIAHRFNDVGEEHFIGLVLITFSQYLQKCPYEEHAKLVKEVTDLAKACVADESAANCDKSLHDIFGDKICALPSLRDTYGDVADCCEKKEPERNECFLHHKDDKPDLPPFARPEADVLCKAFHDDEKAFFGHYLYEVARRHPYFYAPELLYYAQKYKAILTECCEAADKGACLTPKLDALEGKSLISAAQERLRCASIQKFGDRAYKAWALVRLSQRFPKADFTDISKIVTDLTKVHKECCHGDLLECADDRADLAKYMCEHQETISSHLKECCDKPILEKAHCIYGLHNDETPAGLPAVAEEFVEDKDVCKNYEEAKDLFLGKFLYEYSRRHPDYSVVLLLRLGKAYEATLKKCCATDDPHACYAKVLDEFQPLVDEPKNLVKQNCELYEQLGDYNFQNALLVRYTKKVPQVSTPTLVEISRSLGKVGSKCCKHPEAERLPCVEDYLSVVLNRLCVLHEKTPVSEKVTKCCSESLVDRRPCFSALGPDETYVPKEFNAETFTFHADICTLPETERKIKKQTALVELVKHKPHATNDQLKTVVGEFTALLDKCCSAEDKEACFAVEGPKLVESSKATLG
# Text: (§1) Each mixed solution of substrate albumin and a protein-modifying substance was immobilized on a 96-well microplate, and was investigated for specificity to the anti-4-HNE antibody (#13-1-1) of the present invention by an ELISA method.
# [2] = molecular target: T2, rat serum albumin modified with D-glucose (rat, UniProt P02770 25-608, non-enzymatically modified by incubation with D-glucose (250 mM, 3 weeks); sites not stated)
# T2 construct: also called D-glucose Rat-SA
# T2 sequence (P02770 25-608 limits assumed): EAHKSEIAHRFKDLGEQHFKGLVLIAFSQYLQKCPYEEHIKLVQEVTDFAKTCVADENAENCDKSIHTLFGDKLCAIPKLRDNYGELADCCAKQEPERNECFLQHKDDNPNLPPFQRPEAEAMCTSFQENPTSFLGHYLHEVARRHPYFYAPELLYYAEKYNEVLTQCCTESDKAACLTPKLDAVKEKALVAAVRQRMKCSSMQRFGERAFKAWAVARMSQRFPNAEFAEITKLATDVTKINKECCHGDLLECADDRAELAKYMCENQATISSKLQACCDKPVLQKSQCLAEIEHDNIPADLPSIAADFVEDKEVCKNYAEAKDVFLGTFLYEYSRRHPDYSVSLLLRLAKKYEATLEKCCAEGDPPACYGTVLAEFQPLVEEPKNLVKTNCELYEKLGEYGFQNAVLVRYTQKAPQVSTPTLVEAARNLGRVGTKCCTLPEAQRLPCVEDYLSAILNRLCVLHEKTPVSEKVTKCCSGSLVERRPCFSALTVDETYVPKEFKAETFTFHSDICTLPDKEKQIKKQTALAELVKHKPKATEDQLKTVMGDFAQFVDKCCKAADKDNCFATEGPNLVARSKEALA
# Text: as §1
# [3] = molecular target: T3, human serum albumin modified with glyoxal (human, UniProt P02768 25-609, non-enzymatically modified by incubation with glyoxal (50 mM, 7 days); sites not stated)
# T3 construct: also called Glyoxal HSA
# T3 sequence (P02768 25-609 limits assumed): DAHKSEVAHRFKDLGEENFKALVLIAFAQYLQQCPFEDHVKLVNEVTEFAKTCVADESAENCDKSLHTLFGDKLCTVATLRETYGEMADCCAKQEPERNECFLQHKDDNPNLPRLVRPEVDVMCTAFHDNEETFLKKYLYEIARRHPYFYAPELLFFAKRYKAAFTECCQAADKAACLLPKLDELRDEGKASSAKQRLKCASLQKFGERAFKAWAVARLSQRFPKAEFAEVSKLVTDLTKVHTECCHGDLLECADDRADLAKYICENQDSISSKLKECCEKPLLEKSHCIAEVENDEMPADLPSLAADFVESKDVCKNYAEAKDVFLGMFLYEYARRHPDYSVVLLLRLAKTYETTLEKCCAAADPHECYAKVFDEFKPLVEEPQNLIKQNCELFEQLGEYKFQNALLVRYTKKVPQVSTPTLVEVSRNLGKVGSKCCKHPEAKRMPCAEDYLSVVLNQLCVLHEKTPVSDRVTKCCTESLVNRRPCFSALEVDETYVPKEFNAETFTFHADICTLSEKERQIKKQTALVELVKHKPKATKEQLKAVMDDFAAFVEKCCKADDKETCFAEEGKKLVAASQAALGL
# Text: as §1
# [4] = molecular target: T4, human serum albumin modified with glyceraldehyde (human, UniProt P02768 25-609, non-enzymatically modified by incubation with glyceraldehyde (50 mM, 7 days); sites not stated)
# T4 construct: also called Glyceraldehyde HSA
# T4 sequence (P02768 25-609 limits assumed): as above
# Text: as §1
# [5] = molecular target: T5, human serum albumin modified with glycolaldehyde (human, UniProt P02768 25-609, non-enzymatically modified by incubation with glycolaldehyde (50 mM, 7 days); sites not stated)
# T5 construct: also called Glycolaldehyde HSA
# T5 sequence (P02768 25-609 limits assumed): as above
# Text: as §1
# [6] = molecular target: T6, human serum albumin, unmodified (human, UniProt P02768 25-609)
# T6 construct: also called HSA
# T6 sequence (P02768 25-609 limits assumed): as above
# Text: as §1
# [7] = molecular target: T7, bovine serum albumin modified with glyoxal (bovine, UniProt P02769 25-607, non-enzymatically modified by incubation with glyoxal (50 mM, 7 days); sites not stated)
# T7 construct: also called Glyoxal BSA
# T7 sequence (P02769 25-607 limits assumed): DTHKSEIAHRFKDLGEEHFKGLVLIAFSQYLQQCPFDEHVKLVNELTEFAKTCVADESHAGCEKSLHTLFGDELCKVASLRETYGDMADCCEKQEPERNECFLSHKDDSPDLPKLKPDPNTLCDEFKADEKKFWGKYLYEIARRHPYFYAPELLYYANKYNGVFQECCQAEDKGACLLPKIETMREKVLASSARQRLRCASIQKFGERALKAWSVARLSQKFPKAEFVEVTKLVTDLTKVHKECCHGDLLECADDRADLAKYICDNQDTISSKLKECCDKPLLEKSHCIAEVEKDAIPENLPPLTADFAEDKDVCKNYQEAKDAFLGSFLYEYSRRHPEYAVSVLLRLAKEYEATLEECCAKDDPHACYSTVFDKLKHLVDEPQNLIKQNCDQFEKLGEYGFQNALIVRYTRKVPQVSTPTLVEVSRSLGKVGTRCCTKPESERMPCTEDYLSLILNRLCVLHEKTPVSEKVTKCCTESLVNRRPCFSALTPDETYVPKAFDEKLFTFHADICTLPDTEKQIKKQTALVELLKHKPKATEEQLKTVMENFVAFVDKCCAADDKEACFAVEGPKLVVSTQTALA
# Text: as §1
# [8] = molecular target: T8, bovine serum albumin modified with crotonaldehyde (bovine, UniProt P02769 25-607, non-enzymatically modified by incubation with crotonaldehyde (CRA, 50 mM, 7 days); sites not stated)
# T8 construct: also called CRA BSA
# T8 sequence (P02769 25-607 limits assumed): as above
# Text: as §1
# [9] = molecular target: T9, rabbit serum albumin modified with D-glucose (rabbit, UniProt P49065 25-608, non-enzymatically modified by incubation with D-glucose (250 mM, 3 weeks); sites not stated)
# T9 construct: also called D-glucose Rabbit-SA
# T9 sequence (P49065 25-608 limits assumed): as the sequence (P49065 25-608 limits assumed) above
# Text: as §1
# [10] = molecular target: T10, human serum albumin modified with crotonaldehyde (human, UniProt P02768 25-609, non-enzymatically modified by incubation with crotonaldehyde (CRA, 50 mM, 7 days); sites not stated)
# T10 construct: also called CRA HSA
# T10 sequence (P02768 25-609 limits assumed): as the sequence (P02768 25-609 limits assumed) above
# Text: as §1
# [11] = molecular target: T11, rat serum albumin modified with glycolaldehyde (rat, UniProt P02770 25-608, non-enzymatically modified by incubation with glycolaldehyde (50 mM, 7 days); sites not stated)
# T11 construct: also called Glycolaldehyde Rat-SA
# T11 sequence (P02770 25-608 limits assumed): as the sequence (P02770 25-608 limits assumed) above
# Text: as §1
# [12] = molecular target: T12, bovine serum albumin modified with D-glucose (bovine, UniProt P02769 25-607, non-enzymatically modified by incubation with D-glucose (250 mM, 3 weeks); sites not stated)
# T12 construct: also called D-glucose BSA
# T12 sequence (P02769 25-607 limits assumed): as the sequence (P02769 25-607 limits assumed) above
# Text: as §1
# [13] = molecular target: T13, rabbit serum albumin modified with glyceraldehyde (rabbit, UniProt P49065 25-608, non-enzymatically modified by incubation with glyceraldehyde (50 mM, 7 days); sites not stated)
# T13 construct: also called Glyceraldehyde Rabbit-SA
# T13 sequence (P49065 25-608 limits assumed): as the sequence (P49065 25-608 limits assumed) above
# Text: as §1
# [14] = molecular target: T14, bovine serum albumin modified with malondialdehyde (bovine, UniProt P02769 25-607, non-enzymatically modified by incubation with malondialdehyde (MDA, 50 mM, 7 days); sites not stated)
# T14 construct: also called MDA BSA
# T14 sequence (P02769 25-607 limits assumed): as the sequence (P02769 25-607 limits assumed) above
# Text: as §1
# [15] = molecular target: T15, rat serum albumin modified with malondialdehyde (rat, UniProt P02770 25-608, non-enzymatically modified by incubation with malondialdehyde (MDA, 50 mM, 7 days); sites not stated)
# T15 construct: also called MDA Rat-SA
# T15 sequence (P02770 25-608 limits assumed): as the sequence (P02770 25-608 limits assumed) above
# Text: as §1
# [16] = molecular target: T16, rat serum albumin modified with glyoxal (rat, UniProt P02770 25-608, non-enzymatically modified by incubation with glyoxal (50 mM, 7 days); sites not stated)
# T16 construct: also called Glyoxal Rat-SA
# T16 sequence (P02770 25-608 limits assumed): as above
# Text: as §1
# [17] = molecular target: T17, rabbit serum albumin modified with methylglyoxal (rabbit, UniProt P49065 25-608, non-enzymatically modified by incubation with methylglyoxal (50 mM, 7 days); sites not stated)
# T17 construct: also called Methylglyoxal Rabbit-SA
# T17 sequence (P49065 25-608 limits assumed): as the sequence (P49065 25-608 limits assumed) above
# Text: as §1
# [18] = molecular target: T18, rabbit serum albumin modified with crotonaldehyde (rabbit, UniProt P49065 25-608, non-enzymatically modified by incubation with crotonaldehyde (CRA, 50 mM, 7 days); sites not stated)
# T18 construct: also called CRA Rabbit-SA
# T18 sequence (P49065 25-608 limits assumed): as above
# Text: as §1
# [19] = molecular target: T19, rabbit serum albumin modified with glyoxal (rabbit, UniProt P49065 25-608, non-enzymatically modified by incubation with glyoxal (50 mM, 7 days); sites not stated)
# T19 construct: also called Glyoxal Rabbit-SA
# T19 sequence (P49065 25-608 limits assumed): as above
# Text: as §1
# [20] = molecular target: T20, rabbit serum albumin modified with glycolaldehyde (rabbit, UniProt P49065 25-608, non-enzymatically modified by incubation with glycolaldehyde (50 mM, 7 days); sites not stated)
# T20 construct: also called Glycolaldehyde Rabbit-SA
# T20 sequence (P49065 25-608 limits assumed): as above
# Text: as §1
# [21] = molecular target: T21, bovine serum albumin modified with glycolaldehyde (bovine, UniProt P02769 25-607, non-enzymatically modified by incubation with glycolaldehyde (50 mM, 7 days); sites not stated)
# T21 construct: also called Glycolaldehyde BSA
# T21 sequence (P02769 25-607 limits assumed): as the sequence (P02769 25-607 limits assumed) above
# Text: as §1
# [22] = molecular target: T22, bovine serum albumin modified with glyceraldehyde (bovine, UniProt P02769 25-607, non-enzymatically modified by incubation with glyceraldehyde (50 mM, 7 days); sites not stated)
# T22 construct: also called Glyceraldehyde BSA
# T22 sequence (P02769 25-607 limits assumed): as above
# Text: as §1
# [23] = molecular target: T23, bovine serum albumin, unmodified (bovine, UniProt P02769 25-607)
# T23 construct: also called BSA
# T23 sequence (P02769 25-607 limits assumed): as above
# Text: as §1
# [24] = molecular target: T24, human serum albumin modified with D-glucose (human, UniProt P02768 25-609, non-enzymatically modified by incubation with D-glucose (250 mM, 3 weeks); sites not stated)
# T24 construct: also called D-glucose HSA
# T24 sequence (P02768 25-609 limits assumed): as the sequence (P02768 25-609 limits assumed) above
# Text: as §1
# [25] = molecular target: T25, rat serum albumin, unmodified (rat, UniProt P02770 25-608)
# T25 construct: also called Rat-SA
# T25 sequence (P02770 25-608 limits assumed): as the sequence (P02770 25-608 limits assumed) above
# Text: as §1
# [26] = molecular target: T26, human serum albumin modified with methylglyoxal (human, UniProt P02768 25-609, non-enzymatically modified by incubation with methylglyoxal (50 mM, 7 days); sites not stated)
# T26 construct: also called Methylglyoxal HSA
# T26 sequence (P02768 25-609 limits assumed): as the sequence (P02768 25-609 limits assumed) above
# Text: as §1
# [27] = molecular target: T27, bovine serum albumin modified with methylglyoxal (bovine, UniProt P02769 25-607, non-enzymatically modified by incubation with methylglyoxal (50 mM, 7 days); sites not stated)
# T27 construct: also called Methylglyoxal BSA
# T27 sequence (P02769 25-607 limits assumed): as the sequence (P02769 25-607 limits assumed) above
# Text: as §1
# [28] = molecular target: T28, rat serum albumin modified with methylglyoxal (rat, UniProt P02770 25-608, non-enzymatically modified by incubation with methylglyoxal (50 mM, 7 days); sites not stated)
# T28 construct: also called Methylglyoxal Rat-SA
# T28 sequence (P02770 25-608 limits assumed): as the sequence (P02770 25-608 limits assumed) above
# Text: as §1
# [29] = molecular target: T29, rat serum albumin modified with glyceraldehyde (rat, UniProt P02770 25-608, non-enzymatically modified by incubation with glyceraldehyde (50 mM, 7 days); sites not stated)
# T29 construct: also called Glyceraldehyde Rat-SA
# T29 sequence (P02770 25-608 limits assumed): as above
# Text: as §1
# [30] = molecular target: T30, rabbit serum albumin modified with malondialdehyde (rabbit, UniProt P49065 25-608, non-enzymatically modified by incubation with malondialdehyde (MDA, 50 mM, 7 days); sites not stated)
# T30 construct: also called MDA Rabbit-SA
# T30 sequence (P49065 25-608 limits assumed): as the sequence (P49065 25-608 limits assumed) above
# Text: as §1
# [31] = molecular target: T31, human serum albumin modified with malondialdehyde (human, UniProt P02768 25-609, non-enzymatically modified by incubation with malondialdehyde (MDA, 50 mM, 7 days); sites not stated)
# T31 construct: also called MDA HSA
# T31 sequence (P02768 25-609 limits assumed): as the sequence (P02768 25-609 limits assumed) above
# Text: as §1
# [32] = molecular target: T32, rat serum albumin modified with crotonaldehyde (rat, UniProt P02770 25-608, non-enzymatically modified by incubation with crotonaldehyde (CRA, 50 mM, 7 days); sites not stated)
# T32 construct: also called CRA Rat-SA
# T32 sequence (P02770 25-608 limits assumed): as the sequence (P02770 25-608 limits assumed) above
# Text: as §1
# [33] = molecular target: bovine serum albumin protein adduct with 4-HNE (bovine) (UniProt P02769)
# Sequence of bovine serum albumin protein adduct with 4-HNE (bovine) (P02769 25-607 limits assumed, form in doubt): as the sequence (P02769 25-607 limits assumed) above
# [34] = molecular target: rat serum albumin protein adduct with 4-HNE (rat) (UniProt P02770)
# Sequence of rat serum albumin protein adduct with 4-HNE (rat) (P02770 25-608 limits assumed, form in doubt): as the sequence (P02770 25-608 limits assumed) above
# [35] = molecular target: human serum albumin protein adduct with 4-HNE (human) (UniProt P02768)
# Sequence of human serum albumin protein adduct with 4-HNE (human) (P02768 25-609 limits assumed, form in doubt): as the sequence (P02768 25-609 limits assumed) above
# [36] = molecular target: rabbit serum albumin protein adduct with 4-HNE (rabbit) (UniProt P49065)
# Sequence of rabbit serum albumin protein adduct with 4-HNE (rabbit) (P49065 25-608 limits assumed, form in doubt): as the sequence (P49065 25-608 limits assumed) above
binder,measurement,setting,value
B1,ELISA reading (name and unit not given),[1],0.114
same,ELISA reading (name and unit not given),[2],0.076
same,ELISA reading (name and unit not given),[3],0.065
same,ELISA reading (name and unit not given),[4],0.068
same,ELISA reading (name and unit not given),[5],0.071
same,ELISA reading (name and unit not given),[6],0.118
same,ELISA reading (name and unit not given),[7],0.066
same,ELISA reading (name and unit not given),[8],0.156
same,ELISA reading (name and unit not given),[9],0.069
same,ELISA reading (name and unit not given),[10],0.077
same,ELISA reading (name and unit not given),[11],0.07
same,ELISA reading (name and unit not given),[12],0.081
same,ELISA reading (name and unit not given),[13],0.069
same,ELISA reading (name and unit not given),[14],0.074
same,ELISA reading (name and unit not given),[15],0.08
same,ELISA reading (name and unit not given),[16],0.073
same,ELISA reading (name and unit not given),[17],0.072
same,ELISA reading (name and unit not given),[18],0.074
same,ELISA reading (name and unit not given),[19],0.073
same,ELISA reading (name and unit not given),[20],0.067
same,ELISA reading (name and unit not given),[21],0.071
same,ELISA reading (name and unit not given),[22],0.07
same,ELISA reading (name and unit not given),[23],0.15
same,ELISA reading (name and unit not given),[24],0.068
same,ELISA reading (name and unit not given),[25],0.088
same,ELISA reading (name and unit not given),[26],0.069
same,ELISA reading (name and unit not given),[27],0.073
same,ELISA reading (name and unit not given),[28],0.074
same,ELISA reading (name and unit not given),[29],0.069
same,ELISA reading (name and unit not given),[30],0.07
same,ELISA reading (name and unit not given),[31],0.065
same,ELISA reading (name and unit not given),[32],0.141
same,ELISA reading (name and unit not given),[33],1.11
same,ELISA reading (name and unit not given),[34],1.37
same,ELISA reading (name and unit not given),[35],0.956
same,ELISA reading (name and unit not given),[36],0.663
